Test [1] concerns the target T1, Cynomolgus Serum Albumin (cynomolgus monkey, UniProt A2V9Z4 25-608).
T1 construct: also called Macaca Fascicularis (cynomolgus monkey) serum albumin
Put plainly: IMAC pull-down from normal serum, SDS-PAGE with Coomassie stain. The protocol: (§1) To evaluate the functionality of binders, selected FN3 domains were tested for their ability to complex with endogenous albumin in normal serum. To ensure that albumin binding was preserved when selected FN3 domains were attached at either the amino or carboxy terminus of another FN3 domain, bivalent FN3 genes were prepared to generate constructs ALB18, ALB 30, ALB 21, ALB33, ALB34 and ALB35 (Table 6).
(§2) C-terminally His6-tagged (SEQ ID NO: 72) bivalent FN3 domains (0.25-2.0 mg/mL in DPBS without calcium or magnesium) were mixed in a 1:1 volumetric ratio with normal serum and incubated for 1 hour at room temperature to allow binding to endogenous albumin in the serum. His6-tagged (SEQ ID NO: 72) FN3 domain-albumin complexes were recovered from serum via immobilized metal affinity chromatography (IMAC) using 200+ PhyTip columns containing a 5 μL resin bed (PureSpeed™ Protein Tip IMAC from Rainin Instrument LLC; Oakland, Calif.) pre-equilibrated with 50 mM Tris, pH 7.0 containing 500 mM NaCl and 10 mM imidazole. Unbound serum proteins were removed by exhaustively washing the resin with equilibration buffer. Bound protein was eluted with 25-100 μL of elution buffer (50 mM Tris, pH 7.0 containing 500 mM NaCl and 250 mM imidazole, pH 7.5). Eluates were analyzed by SDS-PAGE for the co-precipitation of albumin. SDS-PAGE gels were stained with colloidal Coomassie. […]

Test [2] has as its target T2, Human Serum Albumin (human, UniProt P02768 25-609).
T2 construct: also called HSA
The description is as above. The protocol:
as §1, §2

These results are taken from US20170348397A1 (Janssen / Centocor, published 2017).

T2 sequence (P02768 25-609 limits assumed): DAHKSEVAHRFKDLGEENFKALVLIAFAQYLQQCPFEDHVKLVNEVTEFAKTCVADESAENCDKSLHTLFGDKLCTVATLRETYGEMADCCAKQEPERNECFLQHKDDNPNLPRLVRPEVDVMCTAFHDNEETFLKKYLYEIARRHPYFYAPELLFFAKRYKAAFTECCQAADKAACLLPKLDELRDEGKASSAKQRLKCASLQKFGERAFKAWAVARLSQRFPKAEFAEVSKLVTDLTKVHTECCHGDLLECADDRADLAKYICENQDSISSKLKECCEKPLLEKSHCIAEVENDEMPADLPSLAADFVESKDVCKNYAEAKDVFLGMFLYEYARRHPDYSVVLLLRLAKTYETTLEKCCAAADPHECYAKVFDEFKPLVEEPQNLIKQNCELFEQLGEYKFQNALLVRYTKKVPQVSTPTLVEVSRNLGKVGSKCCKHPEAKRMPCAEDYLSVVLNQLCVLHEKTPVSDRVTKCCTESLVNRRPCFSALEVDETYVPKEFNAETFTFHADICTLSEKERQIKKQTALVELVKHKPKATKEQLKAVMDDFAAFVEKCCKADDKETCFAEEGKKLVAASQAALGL
T1 sequence (A2V9Z4 25-608 limits assumed): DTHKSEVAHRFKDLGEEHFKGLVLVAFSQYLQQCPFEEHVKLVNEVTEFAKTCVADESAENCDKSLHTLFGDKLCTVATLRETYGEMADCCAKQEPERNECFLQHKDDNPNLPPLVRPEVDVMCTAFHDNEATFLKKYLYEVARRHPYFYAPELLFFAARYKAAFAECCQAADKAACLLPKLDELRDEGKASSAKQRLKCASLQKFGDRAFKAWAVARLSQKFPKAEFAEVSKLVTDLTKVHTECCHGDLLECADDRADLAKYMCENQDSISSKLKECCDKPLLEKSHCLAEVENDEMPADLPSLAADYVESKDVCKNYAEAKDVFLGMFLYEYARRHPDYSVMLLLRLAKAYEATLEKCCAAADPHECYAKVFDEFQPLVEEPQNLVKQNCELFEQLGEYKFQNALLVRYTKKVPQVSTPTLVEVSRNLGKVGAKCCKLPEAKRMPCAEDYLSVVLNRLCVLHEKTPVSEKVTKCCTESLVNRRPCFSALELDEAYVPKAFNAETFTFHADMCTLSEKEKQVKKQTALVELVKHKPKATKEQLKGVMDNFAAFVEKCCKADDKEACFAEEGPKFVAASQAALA

B1: Tencon25 (designed binder)
chain: LPAPKNLVVSEVTEDSARLSWTAPDAAFDSFLIQYQESEKVGEAIVLTVPGSERSYDLTGLKPGTEYTVSIYGVKGGHRSNPLSAIFTT
notes: Negative control of the pull-down; also called Tc25; TC25
In the case of B1, the binding result in test [1] and in test [2] was “no binding” each time.
